Reference: article PMC4879639 (2016)

T1: recombinant mouse sortilin (mouse, UniProt Q6PHU5 74-754)
T1 chain: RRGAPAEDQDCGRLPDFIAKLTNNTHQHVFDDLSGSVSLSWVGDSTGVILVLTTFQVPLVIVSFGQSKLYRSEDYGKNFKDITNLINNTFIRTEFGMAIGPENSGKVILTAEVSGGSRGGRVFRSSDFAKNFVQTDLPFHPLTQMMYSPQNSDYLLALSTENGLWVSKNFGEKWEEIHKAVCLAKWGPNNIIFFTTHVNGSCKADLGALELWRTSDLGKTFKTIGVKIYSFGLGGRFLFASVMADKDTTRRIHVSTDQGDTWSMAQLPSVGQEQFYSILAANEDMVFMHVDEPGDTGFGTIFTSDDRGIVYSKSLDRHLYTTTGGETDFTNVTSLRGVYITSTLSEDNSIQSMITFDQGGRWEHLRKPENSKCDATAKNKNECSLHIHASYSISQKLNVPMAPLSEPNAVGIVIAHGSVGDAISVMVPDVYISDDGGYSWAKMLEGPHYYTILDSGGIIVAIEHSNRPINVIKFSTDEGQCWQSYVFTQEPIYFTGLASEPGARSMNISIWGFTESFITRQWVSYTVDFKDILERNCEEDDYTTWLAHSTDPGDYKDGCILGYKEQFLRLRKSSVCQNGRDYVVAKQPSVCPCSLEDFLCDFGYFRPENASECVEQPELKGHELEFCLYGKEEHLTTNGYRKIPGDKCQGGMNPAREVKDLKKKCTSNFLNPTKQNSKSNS

B1: recombinant IL-12 (complex)
chain 1: RVIPVSGPARCLSQSRNLLKTTDDMVKTAREKLKHYSCTAEDIDHEDITRDQTSTLKTCLPLELHKNESCLATRETSSTTRGSCLPPQKTSLMMTLCLGSIYEDLKMYQTEFQAINAALQNHNHQQIILDKGMLVAIDELMQSLNHNGETLRQKPPVGEADPYRVKMKLCILLHAFSTRVVTINRVMGYLSSA
chain 2: MWELEKDVYVVEVDWTPDAPGETVNLTCDTPEEDDITWTSDQRHGVIGSGKTLTITVKEFLDAGQYTCHKGGETLSHSHLLLHKKENGIWSTEILKNFKNKTFLKCEAPNYSGRFTCSWLVQRNMDLKFNIKSSSSSPDSRAVTCGMASLSAEKVTLDQRDYEKYSVSCQEDVTCPTAEETLPIELALEARQQNKYENYSTSFFIRDIIKPDPPKNLQMKPLKNSQVEVSWEYPDSWSTPHSYFSLKFFVRIQRKKEKMKETEEGCNQKGAFLVEKTSTEVQCKGGNVCVQAQDRYYNSSCSKWACVPCRVRS
B2: GST-fused mouse IFN-α (ligand)
chain: CDLPHTYNLRNKRALKVLAQMRRLPFLSCLKDRQDFGFPLEKVDNQQIQKAQAIPVLRDLTQQTLNLFTSKASSAAWNATLLDSFCNDLHQQLNDLQTCLMQQVGVQEPPLTQEDALLAVRKYFHRITVYLREKKHSPCAWEVVRAEVWRALSSSVNLLPRLSEEKE
B3: recombinant IL-10 (ligand)
chain: SRGQYSREDNNCTHFPVGQSHMLLELRTAFSQVKTFFQTKDQLDNILLTDSLMQDFKGYLGCQALSEMIQFYLVEVMPQAEKHGPEIKEHLNSLGEKLKTLRMRLRRCHRFLPCENKSKAVEQVKSDFNKLQDQGVYKAMNEFDIFINCIEAYMMIKMKS
B4: recombinant IL-6 (ligand)
chain: FPTSQVRRGDFTEDTTPNRPVYTTSQVGGLITHVLWEIVEMRKELCNGNSDCMNNDDALAENNLKLPEIQRNDGCYQTGYNQEICLLKISSGLLEYHSYLEYMKNNLKDNKKDKARVLQRDTETLIHIFNQEVKDLHKIVLPTPISNALLTDKLESQKEWLRTKTIQFILKSLEEFLKVTLRSTRQT
B5: recombinant IL-17A (ligand)
chain: AAIIPQSSACPNTEAKDFLQNVKVNLKVFNSLGAKVSSRRPSDYLNRSTSPWTLHRNEDPDRYPSVIWEAQCRHQRCVNAEGKLDHHMNSVLIQQEILVLKREPESCPFTFRVEKMLVGVGCTCVASIVRQAA
B6: recombinant IFN-γ (ligand)
chain: HGTVIESLESLNNYFNSSGIDVEEKSLFLDIWRNWQKDGDMKILQSQIISFYLRLFEVLKDNQAISNNISVIESHLITTFFSNSKAKKDAFMSIAKFEVNNPQVQRQAFNELIRVVHQLLPESSLRKRKRSRC

Molecular target: T1, recombinant mouse sortilin
Assay: SPR

Row | Kd [nM] | Binder
1 | 13.6 | B1
2 | 550 | B2
3 | 287 | B3
4 | 1100 | B4
5 | 335 | B5
6 | 2600 | B6
